The values below come from the supplement of paper PMC9170038.

The series deals with MS2 coat protein. The series is described as follows: apparent KD of MS2 coat protein; designed switch direction (-1 OFF switch, 1 ON switch): -1; higher = weaker reporter binding. The method in brief: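 Each step of the titration lasted 0.8–1.5 h at the lowest concentration and 10–20 min at the highest. The protein, SNAP-549-labelled MS2 coat protein, went from 0.7 or 1.5 nM doubling to 3 µM over RNA switches transcribed on Illumina chips by stalled E. coli RNA polymerase. Normalised cluster fluorescence was curve-fitted, and the per-design median over clusters is given as apparent KD.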

[1] abbreviates: input ligand: microRNA oligo, concentration not stated.
The mark [2] stands for this setting: Eterna round: R95, input ligand: FMN 200 uM.
Setting [3] is: Eterna round: R95, input ligand: microRNA oligo, concentration not stated.
The mark [4] stands for this setting: Eterna round: R95, input ligand: none.

Take “AUAAAAGAGUUAGGAUAUCGGAAAGGAAGUGUACGAGAAGGAACGGUAUCCUCGGAAAGACAUGAGGAUCACCCAUGUAGAAAA [PowerStrip EXNG 1.6] (Eterna round: R96, puzzle: Exclusion NG 1)”: the “apparent KD of MS2 coat protein” value by setting is: (input ligand: FMN 200 uM) 34.9 nM; under setting [1], 23.4 nM; (input ligand: none) 35.4 nM.
With “AUAAAGAGGCUAGGAUAUACAUCGGUGCGAAAAGACGUAAUCCUUUGAACAUGAGGAUCACCCAUGUAGAAGGAGCAGACGGAA [Quriored] (Eterna round: R96, puzzle: Exclusion NG 2)”, the “apparent KD of MS2 coat protein” value by setting is: (input ligand: FMN 200 uM) 44.5 nM; under setting [1], 11.7 nM; (input ligand: none) 17.4 nM.
On to “AUAAAUAAGGAGGAUAUCGAAUCGGAAACGAUUCGAGAAGGCCUAACAUGAGGAUCACCCAUGUUCCUUAAAUA [Mat - Exclusion 6 - Eli Mod - D63] (puzzle: Exclusion 6)”, for which the “apparent KD of MS2 coat protein” value turned out to be 30.2 nM under setting [2], 17.6 nM under setting [3] and 20.8 nM under setting [4].
“AUAAAUAGCGAGGAUAUCGUAUCGGAAACGAUACGAGAAGGCGUAACAUGAGGAUCACCCAUGUGUCCUCAAUA [Mat - Exclusion 6 - Eli Mod - D6] (Eterna round: R97, puzzle: Exclusion 6)”: the “apparent KD of MS2 coat protein” value was 801 nM (input ligand: FMN 200 uM) and 87.2 nM (input ligand: none).
Regarding “AUAAAUCAUGUAGGAUAUGCGUGGAGAAGCUAUGCAGAAGGACAUGAGGAUCACCCAUGUGCUUCCGUCUGAGUACAGACGGAA [Mat - Exclusion NG 1 - Mod of JL - D37] (Eterna round: R96, puzzle: Exclusion NG 1)”, the “apparent KD of MS2 coat protein” value by setting is: (input ligand: FMN 200 uM) 129 nM; under setting [1], 99.4 nM; (input ligand: none) 86.5 nM.
In the case of “AUAAAUGAGGAGGAUAUCGAAUCGGAAACGAUUCGAGAAGGCCUAACAUGAGGAUCACCCAUGUUCCUUAAAUA [Mat - Exclusion 6 - Eli Mod - D64] (puzzle: Exclusion 6)”, the “apparent KD of MS2 coat protein” value under setting [3] came out at 25.3 nM.
For the sequence “AUAAAUGAUGAGGAUAUCACUAGCGAUAGCUAGUGAGAAGGCAUCACAUGAGGAUCACCCAUGUGAUCCAAUAA [Mod6 Ex6/6-A4 by Brourd] (Eterna round: R97, puzzle: Exclusion 6)”, the “apparent KD of MS2 coat protein” value (input ligand: FMN 200 uM) was determined as 479 nM and the “apparent KD of MS2 coat protein” value (input ligand: none) was determined as 359 nM.
In the case of “AUAACAAGCUUUUUGUUCGUAGAACAUGAUGCUCGAGUCACAUGAGGAUCACCCAUGUCAUCCAGAUUGAUAGUUGA [JR_SV3TOV2_Sub060] (puzzle: Sensor v3, turn-off variant 2)”, the “apparent KD of MS2 coat protein” value was 39.5 nM under setting [2], 51.2 nM under setting [3] and 40.3 nM under setting [4].
As for “AUAACAUGCUGGUGAUCAUACAUGAGGAUCACCCAUGUAACAAGCUUUUUGUUCGUCUUAUAAUUUAAGAUCACCAG [Stov1/7-B2] (Eterna round: R97, puzzle: Sensor, turn-off variant 1)”, the “apparent KD of MS2 coat protein” value is 21.7 nM (input ligand: FMN 200 uM) and 19.2 nM (input ligand: none).
Consider “AUAAUAAAGGAGGAUAUCGAUUCGGAAACGAAUCGAGAAGGUCUAACAUGAGGAUCACCCAUGUUCCUCAAAUA [Mat - Exclusion 6 - Eli Mod - D51] (puzzle: Exclusion 6)”, for which the “apparent KD of MS2 coat protein” value runs as follows: under setting [2], 58 nM; under setting [3], 35.6 nM; under setting [4], 27.9 nM.
For “AUAAUAAAGGAGGAUAUCGUUUCGGAAACGAAACGAGAAGGUCUAACAUGAGGAUCACCCAUGUUCCUCAAAUA [Mat - Exclusion 6 - Eli Mod - D52] (puzzle: Exclusion 6)”, in that order: 66.4 nM, 33.3 nM and 53.5 nM.
“AUAAUAGUAGGAGGAUAUCGCAGGAUAUGGGCCUUAAAACAUAACAUGAGGAUCACCCAUGUGCACGAGAAGGCCUGGAAAAUA [Orsolavera] (Eterna round: R96, puzzle: Exclusion NG 2)”: the “apparent KD of MS2 coat protein” value (input ligand: FMN 200 uM) worked out at 25.7 nM, the “apparent KD of MS2 coat protein” value under setting [1] was 11.5 nM and the “apparent KD of MS2 coat protein” value (input ligand: none) is 18.6 nM.
Regarding “AUAAUAUAUGUAGGAUAUCUGCACGUGUAGUGCAGAGAAGGACAUGAGGAUCACCCAUGUAAUUAAGAUCAAUUAUUAAAUUAU [ENG1/4-B3] (Eterna round: R96, puzzle: Exclusion NG 1)”, the “apparent KD of MS2 coat protein” value was 83.8 nM (input ligand: FMN 200 uM), 35.5 nM under setting [1] and 38.1 nM (input ligand: none).
For “AUAAUAUAUGUAGGAUAUCUGCACGUUUAGUGCAGAGAAGGACAUGAGGAUCACCCAUGUAAUUAAGAUCAAUUAUUAAAUUAU [ENG1/4-B2] (Eterna round: R96, puzzle: Exclusion NG 1)” the same measures were 59.5 nM, 29.5 nM and 40.8 nM.
For the sequence “AUAAUGUAAGGAUAUCAGUCGACUAGCCUCGGCUAGUCGACUGAGAAGGUACAUGAGGAUCACCCAUGUAGAUC [E4/19-A2] (Eterna round: R97, puzzle: Exclusion 4)”, the “apparent KD of MS2 coat protein” value is, setting by setting: (input ligand: FMN 200 uM) 352 nM; (input ligand: none) 47.8 nM.
For “AUAAUGUAAGGAUAUCAGUCGACUAGCGAUAGCUAGUCGACUGAGAAGGUACAUGAGGAUCACCCAUGUGAUUA [E4/10-A4] (Eterna round: R97, puzzle: Exclusion 4)”, in that order: 421 nM and 167 nM.
In the case of “AUAAUGUAAGGAUAUCAGUCGACUAGCUGCGGCUAGUCGACUGAGAAGGUACAUGAGGAUCACCCAUGUGGUUC [E4/11-A3] (Eterna round: R97, puzzle: Exclusion 4)”, the “apparent KD of MS2 coat protein” value was 185 nM (input ligand: FMN 200 uM) and 304 nM (input ligand: none).
For “AUAAUGUAAGGAUAUCAGUCGACUAGCUUCGGCUAGUCGACUGAGAAGGUACAUGAGGAUCACCCAUGUAGAUC [E4/19-A1] (Eterna round: R97, puzzle: Exclusion 4)”, in that order: 363 nM and 66 nM.
Consider “AUAAUGUAAGGAUAUCAGUCGUACAGCUGCGGCUGUACGACUGAGAAGGUACAUGAGGAUCACCCAUGUGGUCA [E4/9-A3] (Eterna round: R97, puzzle: Exclusion 4)”, for which the “apparent KD of MS2 coat protein” value was 324 nM (input ligand: FMN 200 uM) and 694 nM (input ligand: none).
Take “AUAAUGUCAGGAUAUACAUGAGGAUCACCCAUGUUAGAAAGAGAAGAAGAGAAACUAUGUAGAAGGGACAAUAA [Hair Trigger] (puzzle: Exclusion 3)”: the “apparent KD of MS2 coat protein” value runs as follows: under setting [2], 43.7 nM; under setting [3], 20.6 nM; under setting [4], 29.1 nM.
As for “AUAAUGUCAGGAUAUCAGAAGUUUAACCUCGGUUAAACUUCUGAGAAGGGACAUGAGGAUCACCCAUGUGAUUA [E4/3-B2] (Eterna round: R97, puzzle: Exclusion 4)”, the “apparent KD of MS2 coat protein” value by setting is: (input ligand: FMN 200 uM) 68.4 nM; (input ligand: none) 950 nM.
For “AUAAUGUCAGGAUAUCAGUCGACUAGCUGCGGCUAGUCGACUGAGAAGGGACAUGAGGAUCACCCAUGUAGAUC [E4/18-A3] (Eterna round: R97, puzzle: Exclusion 4)”, in that order: 244 nM and 992 nM.
For “AUAAUGUCAGGAUAUCAGUCGACUAGCUUCGGCUAGUCGACUGAGAAGGGACAUGAGGAUCACCCAUGUAGAUC [E4/18-A1] (Eterna round: R97, puzzle: Exclusion 4)” the same measures were 267 nM and 1120 nM.
In the case of “AUAAUGUCAGGAUAUCAGUCGUACAGCGAUAGCUGUACGACUGAGAAGGGACAUGAGGAUCACCCAUGUGGUCA [E4/6-A4] (Eterna round: R97, puzzle: Exclusion 4)”, the “apparent KD of MS2 coat protein” value runs as follows: (input ligand: FMN 200 uM) 13.3 nM; (input ligand: none) 18.1 nM.
“AUAAUGUCAGGAUAUCAGUCGUACAGCGAUAGCUGUACGACUGAGAAGGGACAUGAGGAUCACCCAUGUGGUUA [E4/7-A4] (Eterna round: R97, puzzle: Exclusion 4)”: the “apparent KD of MS2 coat protein” value is, setting by setting: (input ligand: FMN 200 uM) 169 nM; (input ligand: none) 1910 nM.
On to “AUAAUGUCAGGAUAUCAGUCGUACAGCUUCGGCUGUACGACUGAGAAGGGACAUGAGGAUCACCCAUGUGGUCA [E4/6-A1] (Eterna round: R97, puzzle: Exclusion 4)”, for which the “apparent KD of MS2 coat protein” value worked out at 61 nM (input ligand: FMN 200 uM) and 50.9 nM (input ligand: none).
For “AUAAUGUGAGGAUAUCAGUAAGAAUGCCUCGGCAUUCUUACUGAGAAGGCACAUGAGGAUCACCCAUGUGAUUA [E4/4-B2] (Eterna round: R97, puzzle: Exclusion 4)”, in that order: 596 nM and 182 nM.
As for “AUAAUUAAUCGAGGAUAUCAGCACGUGUAGUGCUGAGAAGGCGACAUGAGGAUCACCCAUGUGAUCAAUUAAUAUUAAUAUUAU [ENG1/11-C3] (Eterna round: R96, puzzle: Exclusion NG 1)”, the “apparent KD of MS2 coat protein” value came out at 1330 nM (input ligand: FMN 200 uM), 565 nM under setting [1] and 866 nM (input ligand: none).
For “AUAAUUAGUUCAGGAUAUCAGCACGUGUAGUGCUGAGAAGGGAACAUGAGGAUCACCCAUGUGAUCAAUAUUAUAAUUUUAAUU [ENG1/12-B3] (Eterna round: R96, puzzle: Exclusion NG 1)”, in that order: 420 nM, 925 nM and 1190 nM.
Turning to “AUACACUAAGUGAGGAUAUCGAUUUCUUUAAGGAUCGAGAAGGCACAUGAGGAUCACCCAUGUUUGACGUGAAU [JR_BMOE4_Sub096] (puzzle: Brourd's mod of Exclusion 4)”, under setting [3], the “apparent KD of MS2 coat protein” value was determined as 30.3 nM.
With “AUACACUGAGGAUAUACAUGAGGAUCACCCAUGUGGAAAGCCUCUGGCGGAACUUCGUGUAGAAGGCAGCCACG [Esatdi] (puzzle: Exclusion 3)”, the “apparent KD of MS2 coat protein” value by setting is: under setting [2], 18 nM; under setting [3], 13.9 nM; under setting [4], 13.4 nM.
